Reference: patent US20240041922A1, “METHODS AND COMPOSITIONS” (Monash University, priority 2020, published 2024)

Molecular target: zebrafish Ccr5 (Ccr5-like, on pax3a+ muscle stem cells of larval zebrafish) (zebrafish)
Assay: cell-based or functional assay

wound site proliferation in larval zebrafish (EdU): 28.3%
Substance: recombinant murine CCL8/MCP-2 (PeproTech) (from UniProt Q9Z121 24-97) (ligand)
cell proliferation external to the site of injury in larval zebrafish (EdU): 43%
